The text below walks through data of US20070036793A1, “Methods for use of an lkb1/strad7mo25 complex” (priority 2003, published 2007).

Sequences and labels used below:
T1: GST-STRADα lacking the last 3 amino acids (Trp-Glu-Phe) (human, UniProt Q7RTN6 1-428)
T1 construct: not shown: glutathione S-transferase (GST) tag, N-terminal, pEBG-2T vector
T1 sequence: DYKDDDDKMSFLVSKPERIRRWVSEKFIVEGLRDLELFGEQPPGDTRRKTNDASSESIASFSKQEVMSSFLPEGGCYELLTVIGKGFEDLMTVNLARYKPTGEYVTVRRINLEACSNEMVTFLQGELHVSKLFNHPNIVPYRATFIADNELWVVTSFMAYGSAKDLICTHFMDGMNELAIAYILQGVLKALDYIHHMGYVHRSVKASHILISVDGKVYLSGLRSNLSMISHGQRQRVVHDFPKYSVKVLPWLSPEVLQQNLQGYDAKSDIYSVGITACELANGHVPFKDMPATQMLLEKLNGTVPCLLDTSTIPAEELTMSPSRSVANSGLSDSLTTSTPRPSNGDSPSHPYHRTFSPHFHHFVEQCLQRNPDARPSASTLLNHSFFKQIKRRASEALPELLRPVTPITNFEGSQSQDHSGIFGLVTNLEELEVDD

T2: Flag-tagged STRADα (human, UniProt Q7RTN6 1-431, limits assumed)
T2 construct: pCMV5 vector; also called Flag-STRADα; FLAG-STRADα
T2 sequence: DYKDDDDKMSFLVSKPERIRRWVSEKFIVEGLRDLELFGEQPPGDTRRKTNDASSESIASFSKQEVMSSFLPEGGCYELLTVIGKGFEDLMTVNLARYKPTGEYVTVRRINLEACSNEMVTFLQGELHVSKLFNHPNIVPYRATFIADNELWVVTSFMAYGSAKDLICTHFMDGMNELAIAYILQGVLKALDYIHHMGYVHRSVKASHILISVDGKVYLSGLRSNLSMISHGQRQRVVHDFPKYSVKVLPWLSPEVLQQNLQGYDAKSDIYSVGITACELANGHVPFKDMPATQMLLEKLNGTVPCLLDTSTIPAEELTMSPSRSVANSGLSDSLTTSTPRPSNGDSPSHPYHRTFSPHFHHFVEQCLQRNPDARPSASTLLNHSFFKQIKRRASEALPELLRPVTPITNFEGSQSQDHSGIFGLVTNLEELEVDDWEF

T3: Flag-tagged STRADβ (human, UniProt Q9C0K7 1-418)
T3 construct: pCMV5 vector; also called Flag-STRADβ; FLAG-STRADβ
T3 sequence: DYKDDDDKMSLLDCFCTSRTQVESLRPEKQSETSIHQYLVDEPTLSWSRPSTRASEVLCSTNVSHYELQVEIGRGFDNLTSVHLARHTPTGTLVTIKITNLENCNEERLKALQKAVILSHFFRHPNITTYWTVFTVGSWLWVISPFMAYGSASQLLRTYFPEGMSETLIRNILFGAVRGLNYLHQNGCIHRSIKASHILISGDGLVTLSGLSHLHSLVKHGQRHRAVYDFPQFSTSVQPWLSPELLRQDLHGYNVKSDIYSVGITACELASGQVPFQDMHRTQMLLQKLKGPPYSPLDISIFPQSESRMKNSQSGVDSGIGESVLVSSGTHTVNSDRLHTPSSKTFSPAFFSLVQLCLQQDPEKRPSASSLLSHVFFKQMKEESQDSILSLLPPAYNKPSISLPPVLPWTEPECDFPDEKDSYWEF

T4: N-terminal Flag epitope tagged wild type LKB1 (mouse, UniProt Q9WTK7 1-436)
T4 construct: not restated for the HeLa lines; also called Flag-LKB1; WT LKB1
T4 sequence: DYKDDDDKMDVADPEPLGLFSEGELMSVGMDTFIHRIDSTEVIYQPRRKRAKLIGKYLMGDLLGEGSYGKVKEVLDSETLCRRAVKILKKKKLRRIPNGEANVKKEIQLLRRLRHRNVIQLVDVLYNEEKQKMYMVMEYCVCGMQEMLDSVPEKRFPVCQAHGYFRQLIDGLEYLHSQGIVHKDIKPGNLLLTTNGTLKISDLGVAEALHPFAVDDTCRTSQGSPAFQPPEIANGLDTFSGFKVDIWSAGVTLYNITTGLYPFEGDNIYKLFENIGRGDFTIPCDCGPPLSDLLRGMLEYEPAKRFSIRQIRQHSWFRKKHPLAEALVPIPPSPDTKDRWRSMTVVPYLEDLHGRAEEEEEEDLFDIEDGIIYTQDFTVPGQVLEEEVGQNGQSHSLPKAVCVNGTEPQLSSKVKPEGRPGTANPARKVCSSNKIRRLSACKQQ

B1: N-terminal Myc-tagged MO25α (other, human, UniProt Q9Y376 1-341, looked up)
chain: MPFPFGKSHKSPADIVKNLKESMAVLEKQDISDKKAEKATEEVSKNLVAMKEILYGTNEKEPQTEAVAQLAQELYNSGLLSTLVADLQLIDFEGKKDVAQIFNNILRRQIGTRTPTVEYICTQQNILFMLLKGYESPEIALNCGIMLRECIRHEPLAKIILWSEQFYDFFRYVEMSTFDIASDAFATFKDLLTRHKLLSAEFLEQHYDRFFSEYEKLLHSENYVTKRQSLKLLGELLLDRHNFTIMTKYISKPENLKLMMNLLRDKSRNIQFEAFHVFKVFVANPNKTQPILDILLKNQAKLIEFLSKFQNDRTEDEQFNDEKTYLVKQIRDLKRPAQQEA
notes: also called Myc-MO25α; myc-MO25α; not shown: only the DNA primer is printed
B2: GST-STRADα lacking the C-terminal 88 residues (other, human)
chain: DYKDDDDKMSFLVSKPERIRRWVSEKFIVEGLRDLELFGEQPPGDTRRKTNDASSESIASFSKQEVMSSFLPEGGCYELLTVIGKGFEDLMTVNLARYKPTGEYVTVRRINLEACSNEMVTFLQGELHVSKLFNHPNIVPYRATFIADNELWVVTSFMAYGSAKDLICTHFMDGMNELAIAYILQGVLKALDYIHHMGYVHRSVKASHILISVDGKVYLSGLRSNLSMISHGQRQRVVHDFPKYSVKVLPWLSPEVLQQNLQGYDAKSDIYSVGITACELANGHVPFKDMPATQMLLEKLNGTVPCLLDTSTIPAEELTMSPSRSVANSGLSDSLTTSTPRPSNGDSPSHP
notes: not shown: glutathione S-transferase (GST) tag, N-terminal, pEBG-2T vector

Test [1] concerns the target B2. The experiment in a line: GST pull-down from co-transfected 293 cells. The method, then: (§1) FIG. 7. Binding of LKB1 to STRADα creates novel binding site(s) for MO25α. […] Similar results were obtained in 3 separate experiments.
(§2) Expression of GST-fusion proteins in 293 cells and affinity purification. 10-cm diameter dishes of 293 cells were transiently transfected with 3 to 10 μg of the pEBG-2T constructs using a modified calcium phosphate method (Alessi et al., 1996). 36 h post-transfection, the cells were lysed and the clarified lysates were incubated for 1 h on a rotating platform with glutathione-Sepharose (25 μl/dish of lysate) previously equilibrated in lysis Buffer. The beads were washed 4 times with lysis Buffer containing 150 mM NaCl and twice with Buffer A. For immunoblotting analysis, the beads were then resuspended in SDS sample Buffer after this step to give a final volume of slurry of 75 μl, and the samples immunoblotted as described above. For protein kinase assays and gel electrophoresis, the beads were washed a further twice with Buffer A containing 0.27 M sucrose and the proteins were eluted from the resin by incubation with the same buffer containing 20 mM of glutathione. The beads were then removed by filtration through a 0.44-μm filter and the eluate divided into aliquots and stored at −80° C.

The target of test [2] is T1, GST-STRADα lacking the last 3 amino …. The experiment in a line: GST pull-down from co-transfected 293 cells, anti-Myc blot. The method, then: 5 μg of the total cell lysates prior to affinity purification were also subjected to immunoblotting with anti-Myc antibody to ensure that Myc-MO25α was expressed at similar levels in each condition (lower panel). (B) 0.5 mg of the indicated cell lysates was incubated with 5 μg of an N-terminal biotinylated peptide encompassing either the C-terminal 12 residues STRADα conjugated to streptavidin-Sepharose ([…], termed STRADα-C12) or mutants of this peptide in which the indicated residues were individually mutated to Ala. Following isolation and washing of the beads, the samples were subjected to SDS-polyacrylamide gel electrophoresis and immunoblotted with an anti-MO25α antibody. (C) Binding of bacterially expressed MO25α to the indicated peptides was analysed by surface plasmon resonance BiaCore analysis as described in Materials and Methods. […] WEF-C12 corresponds to […], WEA-C12 corresponds to […], AEF-C12 corresponds to […], WAF-C12 corresponds to […], WEF-C6 corresponds to VDDWEF.
Expression of GST-fusion proteins in 293 cells and affinity purification. 10-cm diameter dishes of 293 cells were transiently transfected with 3 to 10 μg of the pEBG-2T constructs using a modified calcium phosphate method (Alessi et al., 1996). […]

The next test addresses T2, Flag-tagged STRADα. The experiment in a line: heterotrimeric complex purified through GST-LKB1 from co-transfected 293 cells, colloidal blue gel and blots. The procedure: (§3) FIG. 4. MO25α is associated with LKB1 through STRAD (A) 293 cells were transfected with plasmids encoding for the expression of the indicated GST fusion proteins together with Myc-MO25α. 36 h post transfection, the GST tagged proteins were affinity purified from the cell lysates using glutathione-Sepharose as described in Materials and Methods. […] 5 μg of total cell lysates prior to affinity purification were also subjected to immunoblotting with anti-Myc antibody to ensure that Myc-MO25α was expressed at similar levels in each co-transfection (lower panel). (B) N-terminal GST tagged LKB1 was expressed in 293 cells in the presence or absence of Flag-STRADα and purified as above. The purified proteins were subjected to SDS-polyacrylamide gel electrophoresis and visualised by Colloidal blue staining (upper panel). The faint protein band indicated, corresponding to an endogenous protein of 40-kDa (marked *), was identified by tryptic peptide mass-spectral fingerprint as endogenously expressed MO25α (with 38% sequence coverage). The purified proteins were also immunoblotted with the indicated antibodies (lower panels). (C) As above except that GST-LKB1 was expressed in 293 cells together with the indicated isoforms of Flag-STRAD and Myc-MO25 and the proteins visualised by colloidal blue staining were also immunoblotted with the indicated antibodies. For all panels, similar results were obtained in at least 3 separate experiments.
(§4) Expression of GST-fusion proteins in 293 cells and affinity purification. 10-cm diameter dishes of 293 cells were transiently transfected with 3 to 10 μg of the pEBG-2T constructs using a modified calcium phosphate method (Alessi et al., 1996). 36 h post-transfection, the cells were lysed and the clarified lysates were incubated for 1 h on a rotating platform with glutathione-Sepharose (25 μl/dish of lysate) previously equilibrated in lysis Buffer.

A further test concerns the target T3, Flag-tagged STRADβ. The description is as above. The method, then:
as §3, §4

The target in test [3] is T4, N-terminal Flag epitope tagged wild …. Nature of the test: GST pull-down from co-transfected 293 cells. The method, then:
as §1, §2

Regarding B1, the binding result is on record as “no binding” in test [1], “no binding” in test [2], “binds” in the test with Flag-tagged STRADα and “binds” with Flag-tagged STRADβ.
As to B2, the binding result in test [3] is “no binding”.
